Assay results from patent publication US12241094B2, “Phenazine degrading agents and related compositions, methods and systems for interfering with viability of bacteria” (priority 2016, dated 2025).
“Also recorded” adds a separate entry of the source.

What was measured:
[1] = Storage stability of purified PodA30-162; type: physicochemical; conditions: 20 mM Tris, pH7.6, 4° C.; as long as tested
Method: Protein extraction and purification. Frozen cell pellets were thawed at room temperature and suspended in 25 mL wash buffer (200 mM KCl, 20 mM imidazole, Tris, pH 7.6). Cell suspensions were homogenized in an Emulsiflex device (Avestin). Cell debris was removed by centrifugation (Avanti J-25 centrifuge, J-series JA-25.50 rotor, Beckman-Coulter) at 50,000×g and supernatant was applied to a nickel GE Healthcare HisTrap HP 5 mL nickel column on a GE Healthcare ÄKTAxpress FPLC. All protein purification steps were carried out at room temperature. The column with bound protein was washed with wash buffer until the UV (280 nm) trace stabilized below 20 mAU. Proteins were eluted across a gradient of 20-500 mM imidazole applied over 10 column volumes. PYO demethylase activity generally eluted around 300 mM imidazole. Eluted protein was concentrated to ˜3 mL (Amicon Ultra-15 centrifugal filters, Ultracel 3K MWCO) and treated overnight with 1% wt/wt TEV protease (35) while dialyzing (Spectra/Por Biotech Dialysis membrane, MWCO: 3.5-5 kD) into buffer containing 200 mM KCl and 20 mM Tris, pH7.6 at 4 C. […] Protein quantification was carried out by Bradford assay (36) (Quick Start 1× Bradford Dye Reagent, Bio-Rad) using pre-diluted Bovine Serum Albumin standards (Thermo Scientific) to establish a standard curve. […]

[2] = system: P. aeruginosa biofilm aggregates; assay: Biofilm aggregates embedded in agar blocks (anoxic fitness); type: cell-based; conditions: 22 hours growth then 5 hour treatment, 2 μg mL^−1; ~300 μm and deeper below agar surface
Method: Biofilm aggregate experiments. To test the effect of oxygen limitation in the presence of PodA30-162, biofilm aggregates were grown embedded in 0.5% noble agar blocks containing succinate minimal medium. Cultures were grown overnight to stationary phase in LB, washed once with succinate minimal medium, and resuspended to OD600 1.0. Samples were diluted 1:100 in agar at 44° C. and 175 μL was transferred to Nunc Lab-Tek chambered coverglass slides (8-well, 0.7 cm^2 area, supplier #155409). […] SYTO-9 from the LIVE/DEAD stain kit was used in place of DAPI to minimize background fluorescence. […] Biomass was quantified in ImageJ software (60) by identifying the Z-slice with the highest average fluorescent intensity (generally […] the agar surface), and setting the pixel threshold using the default ImageJ thresholding parameters at the Z-slice equivalent to the 100 μm depth. The number of particles in each slice of the Z-stack was determined using this threshold value and counting particles >10 μm^2 in area. […] Particle numbers for each slice were averaged between independent experiments and plotted against depth to quantify biofilm aggregates. […]
Oxygen diffusion modeling. […] Given these values, average cell number per mL was estimated by dividing the volume of total detected biofilm aggregates by the average volume of a P. aeruginosa cell (62) yielding a cell density estimate of 5×10^8. […]

Pa PA14 biofilm = assay: Biofilm biomass by DAPI intensity (Example 7); type: cell-based, P. aeruginosa
Method: In this example, to check for an effect of PodA or 1-OH-PHZ on biofilm development, Pa PA14 was grown in 8-well chambered microscope slides designed for biofilm imaging, as previously reported (Das et al. (2015) Sci Rep. 5:8398). Overnight cultures of Pa PA14 were diluted to a starting optical density of 0.25 and grown directly on the slides (volume of 250 μl per chamber). After 5 h incubation at 37° C., planktonic cells were rinsed from the slide and remaining cells were stained with DAPI. Biofilm biomass was quantified by DAPI intensity on a Leica confocal microscope, with LAS X software. Pa PA14 incubated in the presence of 1 μM PodA or 100 μM 1-OHPHZox had ˜50% the biofilm biomass of Pa PA14 alone (FIG. 20A).

P. aeruginosa biofilm = assay: Optical density of P. aeruginosa biofilm; type: cell-based; conditions: PodA vs inactive E154A; 1-OH-PHZ vs 1% DMSO

B1: PodA30-162: truncated pyocyanin demethylase encoded by MFORT_14352 of Mycobacterium fortuitum lacking N-terminal helix, SEQ ID NO: 2 (protein, listed as Mycobacterium fortuitum)
chain: MDGRGGRSTTEPVTMTLDVKNDQVAKHDFGKPGMDVGDMDIFSDILSVDGKQVGYDGGACFFTNVTPDNPMTYCELTIHLDAGEIFARSLTPHTLAPFTMAITGGTGEYANSKGELTVSGVATPDEKYELKLTKAENLYFQ
time stable with no apparent loss of activity [1]: ≥ 4 months
detectable biofilm aggregates at anoxic depths [2]: sharper decline in detectable aggregates; also recorded: apparent biomass defect specifically at anoxic depths
biofilm biomass relative to Pa PA14 alone (Pa PA14 biofilm; 1 μM PodA or 100 μM 1-OHPHZox, 5 h at 37° C): ~50%
biofilm formation compared to untreated control (Pa PA14 biofilm; PodA 1 μM, 1-OH-PHZ 100 μM, total DAPI staining): inhibit biofilm formation
optical density of biofilm (P. aeruginosa biofilm): significantly decreased
